# Assay results taken from US6521740 (IMMUNEX, dated 2003).
# T1: recombinant human IL-1α (human, UniProt P01583 113-271, limits assumed)
# T1 construct: also called Interleukin-1α
# T1 sequence (looked up): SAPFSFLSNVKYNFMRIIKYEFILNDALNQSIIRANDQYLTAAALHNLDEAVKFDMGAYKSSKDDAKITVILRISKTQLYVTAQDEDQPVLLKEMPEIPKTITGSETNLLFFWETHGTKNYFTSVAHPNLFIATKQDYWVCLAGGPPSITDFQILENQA
# B1: soluble human type II IL-1R (amino acids -13-333 of SEQ ID NO:1) (receptor)
# chain: FTLQPAAHTGAARSCRFRGRHYKREFRLEGEPVALRCPQVPYWLWASVSPRINLTWHKNDSARTVPGEEETRMWAQDGALWLLPALQEDSGTYVCTTRNASYCDKMSIELRVFENTDAFLPFISYPQILTLSTSGVLVCPDLSEFTRDKTDVKIQWYKDSLLLDKDNEKFLSVRGTTHLLVHDVALEDAGYYRCVLTFAHEGQQYNITRSIELRIKKKKEETIPVIISPLKTISASLGSRLTIPCKVFLGTGTPLTTMLWWTANDTHIESAYPGGRVTEGPRQEYSENNENYIEVPLIFDPVTREDLHMDFKCVVHNTLSFQTLRTTVKEASS
# notes: It includes 3 amino acids of the predicted transmembrane region (331-356)
# Experiments:
# recombinant human IL-1α = biological target: T1, recombinant human IL-1α; assay: Inhibition binding assay; soluble receptor against IL-1α binding to CB23 cells; same procedure
# recombinant human IL-1β = biological target: T2, recombinant human IL-1β (human, UniProt P01584 117-269); assay: Inhibition binding assay; soluble receptor (COS-7 supernatant, serially diluted) against 125I-IL-1β binding to CB23 cells; phthalate oil separation
# T2 construct: The 17.5 kD size is consistent with the mature form; also called rIL-1β
# Experimental: The binding inhibition constant of the soluble human type II IL-1R, expressed and purified as described in Example 2 above, is determined by a inhibition binding assay in which varying concentrations of an IL-1β competitor is incubated with a constant amount of radiolabeled I-IL-1β and CB23 cells (an Epstein Barr virus transformed cord blood B lymphocyte cell line) expressing the type II IL-1R. Binding assays were also performed by a phtahlate oil separation method essentially as describe by Dower et al., *J. Immunol.* 132:751, 1984 and Park et al., *J. Biol. Chem.* 261:4177, 1986. Briefly, COS-7 cells were transfected with the expression vector pDC406 containing a cDNA encoding the soluble human type II IL-1R described above. Supernatants from the COS cells were harvested 3 days after transfection and serially diluted in binding medium (Roswell Park Memorial Institute (RPMI) 1640 medium containing 2% BSA, 20 mM Hepes buffer, and 0.2% sodium azide, pH 7.2) in […] to a volume of 50 μl/well. […] Duplicate 60 μl aliquots of the incubation mixture were then transferred to polyethylene centrifuge tubes containing a phthalate oil mixture comprising 1.5 parts dibutylphthalate, to 1 part bis(s-ethylhexyl)phthalate. […] The radioactivity of the cells was then determined on a gamma counter.
binder,measurement,setting,value
B1,"KI (binding inhibition constant, given as an association constant)",recombinant human IL-1α,1.4e+08 M⁻¹
same,"KI (binding inhibition constant, given as an association constant)",recombinant human IL-1β,~3.5e+09 M⁻¹
